Here are results for one substance from patent US20210002376A1.

Like-named read-outs stand apart in the source and are kept apart here.

The target in assay [1] is DR5-Fc fusion protein (UniProt O14763). Kind of assay: ELISA, coated DR5-Fc, anti-human Fab-HRP. (ELISA stands for enzyme-linked immunosorbent assay.)
Assay [2] has the same target. The experiment in a line: ELISA, coated DR5-Fc, anti-human Fab-HRP. The source holds these as a separate data set.

Broadly, the EC50 is the concentration that produces a half-maximal response. A high value points to lower potency in that assay. In the case of Drozitumab (antibody), the EC50 with DR5-Fc fusion protein [1] stood at 1.2 nM; in the assay with DR5-Fc fusion protein [2] it was 1.4 nM.
